This data set concerns the molecule itself. Briefly: SEC. Background: Size exclusion chromatography separates by hydrodynamic size, large species first.

B1: His-MoOsm1 (enzyme)
chain: MAEFVRAQIFGTTFEITSRYSDLQPVGMGAFGLVCSARDQLTNQNVAIKKIMKPFSTPVLAKRTYRELKLLKHLKHENVISLSDIFISPLEDIYFVTELLGTDLHRLLTSRPLEKQFIQYFLYQIMRGLKYVHSAGVVHRDLKPSNILVNENCDLKICDFGLARIQDPQMTGYVSTRYYRAPEIMLTWQKYDVEVDIWSAGCIFAEMLEGKPLFPGKDHVNQFSIITELLGTPPDDVINTIASENTLRFVKSLPKRERQPLKNKFKNADPSAIDLLERMLVFDPKKRITATEALAHEYLTPYHDPTDEPIAEEKFDWSFNDADLPVDTWKIMMYSEILDYHNAEAGMQQMDDQFTGQ
Take B1: the stoichiometry N (usually the number of molecules, sites or subunits per partner or assembly) worked out at 2.
